According to PMC6953191, “OsNAC2 integrates auxin and cytokinin pathways to modulate rice root development”:

Columns and labels:
OsNAC2 [1] = molecular target: T1, OsNAC2 (Oryza sativa L. (rice), UniProt Q7XUV6 1-343); experiment: competition EMSA; unlabelled probe weakened binding of FAM probe N1; 50 mM Tris-HCl pH 8.0, 100 mM KCl, 2.5 mM MgCl2, 0.2 mM DTT, 2 ug salmon sperm DNA, 10% glycerol, 20 uL, 25 C 20 min; probe printed as 200 nmol; 10% PAGE, 0.5x; conditions: protein: recombinant; tags: pET-28a vector tag (BamHI/XhoI); chain copies: 2; blunt
T1 sequence: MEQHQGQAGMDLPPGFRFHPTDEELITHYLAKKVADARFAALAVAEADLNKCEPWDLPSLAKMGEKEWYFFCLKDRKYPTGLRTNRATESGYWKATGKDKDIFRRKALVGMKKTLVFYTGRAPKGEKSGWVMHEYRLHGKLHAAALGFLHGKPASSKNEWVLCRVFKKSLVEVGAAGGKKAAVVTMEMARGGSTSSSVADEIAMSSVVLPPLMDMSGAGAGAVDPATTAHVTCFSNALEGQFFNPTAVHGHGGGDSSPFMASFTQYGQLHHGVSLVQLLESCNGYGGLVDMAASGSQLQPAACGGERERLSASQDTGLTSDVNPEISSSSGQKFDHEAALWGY

OsNAC2 [2] = molecular target: T1, OsNAC2; experiment: EMSA; increasing OsNAC2; 2.5 mM MgCl2; salmon sperm DNA; 50 mM Tris-HCl pH 8.0, 100 mM KCl, 2.5 mM MgCl2, 0.2 mM DTT, 2 ug salmon sperm DNA, 10% glycerol, 20 uL, 25 C 20 min; probe printed as 200 nmol; 10% PAGE, 0.5x; conditions: protein: recombinant; tags: pET-28a vector tag (BamHI/XhoI); chain copies: 2; label: FAM; blunt

B1: unlabelled 3x CGGCCACGCA competitor (dsDNA)
DNA 1: CGGCCACGCACGGCCACGCACGGCCACGCA
DNA 2: TGCGTGGCCGTGCGTGGCCGTGCGTGGCCG
B1: binds (OsNAC2 [1]).

B2: OsCKX4 promoter-derived 3x CGGCCACGCA probe (dsDNA)
DNA 1: B1 DNA 1
DNA 2: B1 DNA 2
B2: binds (OsNAC2 [2]).
